Test results: US20150105316A1 (TREVENA, published 2015)
Where no end group is shown, it is not given here. [ ]: non-standard residue; d: D form. Ac6c = NC1(C(=O)O)CCCCC1; Ac5c = NC1(C(=O)O)CCCC1; Sar = CNCC(=O)O

T1: human angiotensin 2 type 1 receptor (human, UniProt P30556 1-359)
T1 sequence (looked up): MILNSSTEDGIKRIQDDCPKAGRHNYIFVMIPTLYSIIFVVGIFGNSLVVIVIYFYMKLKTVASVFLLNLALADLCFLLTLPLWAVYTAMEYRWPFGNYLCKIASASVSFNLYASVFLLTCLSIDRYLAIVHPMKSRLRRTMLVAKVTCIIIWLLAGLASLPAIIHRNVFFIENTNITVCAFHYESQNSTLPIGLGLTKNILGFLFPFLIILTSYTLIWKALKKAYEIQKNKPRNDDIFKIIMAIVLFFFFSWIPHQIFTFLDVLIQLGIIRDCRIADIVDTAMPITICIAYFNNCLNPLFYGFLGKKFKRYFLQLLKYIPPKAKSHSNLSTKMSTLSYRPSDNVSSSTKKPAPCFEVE

T2: rat angiotensin 2 type 1 receptor (rat, UniProt P25095 1-359)
T2 sequence (looked up): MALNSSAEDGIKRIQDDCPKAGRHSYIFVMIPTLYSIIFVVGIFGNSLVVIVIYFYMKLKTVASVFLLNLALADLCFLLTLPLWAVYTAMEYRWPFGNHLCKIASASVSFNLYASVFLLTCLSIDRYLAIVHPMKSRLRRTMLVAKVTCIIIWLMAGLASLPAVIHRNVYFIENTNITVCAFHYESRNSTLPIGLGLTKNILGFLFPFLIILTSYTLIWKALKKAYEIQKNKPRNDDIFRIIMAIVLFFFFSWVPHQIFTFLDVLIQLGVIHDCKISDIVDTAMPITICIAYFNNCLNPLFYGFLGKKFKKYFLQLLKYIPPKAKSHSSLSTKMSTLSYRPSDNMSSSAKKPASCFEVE


molecular target: T1, human angiotensin 2 type 1 receptor; assay: cell-based or functional assay

| beta-arrestin2 assay EC50 [nM] | beta-arrestin2 assay Span | beta-arrestin2 assay pEC50 | Binder |
| --- | --- | --- | --- |
| > 3.2 | < 101 | < 8.5 | [Sar]RVY[Ac5c]HPM [SEQ ID NO: 23 (Sar-Arg-Val-Tyr-cyPen-His-Pro-Met)] |
| > 3.2 | > 101 | < 8.5 | [Sar]RVY[Ac5c]HPF [SEQ ID NO: 24 (Sar-Arg-Val-Tyr-cyPen-His-Pro-Phe)] |
| > 3.2 | < 101 | < 8.5 | [Sar]RVYPHPI [SEQ ID NO: 4 (Sar-Arg-Val-Tyr-Pro-His-Pro-Ile)] |
| > 3.2 | < 101 | < 8.5 | [Sar]RVY[Ac5c]HPS [SEQ ID NO: 22 (Sar-Arg-Val-Tyr-cyPen-His-Pro-Ser)] |
| > 3.2 | < 101 | < 8.5 | [Sar]RVY[Ac6c]HPQ [SEQ ID NO: 38 (Sar-Arg-Val-Tyr-cyHex-His-Pro-Gln)] |
| > 3.2 | < 101 | < 8.5 | [Sar]RVY[Ac5c]HPI [SEQ ID NO: 18 (Sar-Arg-Val-Tyr-cyPen-His-Pro-Ile)] |
| > 3.2 | < 101 | < 8.5 | [Sar]RVYPHPV [SEQ ID NO: 6 (Sar-Arg-Val-Tyr-Pro-His-Pro-Val)] |
| > 3.2 | < 101 | < 8.5 | [Sar]RVYPHPL [SEQ ID NO: 5 (Sar-Arg-Val-Tyr-Pro-His-Pro-Leu)] |
| > 3.2 | < 101 | < 8.5 | [Sar]RVY[Ac6c]HPY [SEQ ID NO: 55 (Sar-Arg-Val-Tyr-cyHex-His-Pro-Tyr)] |

molecular target: T2, rat angiotensin 2 type 1 receptor; assay: cell-based or functional assay

| beta-arrestin2 assay EC50 [nM] | beta-arrestin2 assay Span | beta-arrestin2 assay pEC50 | Binder |
| --- | --- | --- | --- |
| > 3.2 | < 105 | < 8.5 | [Sar]RVY[Ac5c]HPM [SEQ ID NO: 23 (Sar-Arg-Val-Tyr-cyPen-His-Pro-Met)] |
| > 3.2 | < 105 | < 8.5 | [Sar]RVY[Ac5c]HPF [SEQ ID NO: 24 (Sar-Arg-Val-Tyr-cyPen-His-Pro-Phe)] |
| > 3.2 | < 105 | < 8.5 | [Sar]RVYPHPI [SEQ ID NO: 4 (Sar-Arg-Val-Tyr-Pro-His-Pro-Ile)] |
| > 3.2 | < 105 | < 8.5 | [Sar]RVY[Ac5c]HPS [SEQ ID NO: 22 (Sar-Arg-Val-Tyr-cyPen-His-Pro-Ser)] |
| > 3.2 | < 105 | < 8.5 | [Sar]RVY[Ac6c]HPQ [SEQ ID NO: 38 (Sar-Arg-Val-Tyr-cyHex-His-Pro-Gln)] |
| > 3.2 | < 105 | < 8.5 | [Sar]RVY[Ac5c]HPI [SEQ ID NO: 18 (Sar-Arg-Val-Tyr-cyPen-His-Pro-Ile)] |
| > 3.2 | < 105 | < 8.5 | [Sar]RVYPHPV [SEQ ID NO: 6 (Sar-Arg-Val-Tyr-Pro-His-Pro-Val)] |
| > 3.2 | < 105 | < 8.5 | [Sar]RVYPHPL [SEQ ID NO: 5 (Sar-Arg-Val-Tyr-Pro-His-Pro-Leu)] |
| > 3.2 | < 105 | < 8.5 | [Sar]RVY[Ac6c]HPY [SEQ ID NO: 55 (Sar-Arg-Val-Tyr-cyHex-His-Pro-Tyr)] |

molecular target: T1, human angiotensin 2 type 1 receptor; assay: cell-based or functional assay; remark: another data set of the same source

| IP1 G-protein assay EC50 [nM] | IP1 G-protein assay Span | IP1 G-protein assay pEC50 | Binder |
| --- | --- | --- | --- |
| > 1.3 | < 103 | < 9.2 | [Sar]RVY[Ac5c]HPM [SEQ ID NO: 23 (Sar-Arg-Val-Tyr-cyPen-His-Pro-Met)] |
| < 1.3 | > 103 | < 9.2 | [Sar]RVY[Ac5c]HPF [SEQ ID NO: 24 (Sar-Arg-Val-Tyr-cyPen-His-Pro-Phe)] |
| 2.5 | < 103 | < 9.2 | [Sar]RVYPHPI [SEQ ID NO: 4 (Sar-Arg-Val-Tyr-Pro-His-Pro-Ile)] |
| > 1.3 |  | > 9.2 | [Sar]RVY[Ac5c]HPS [SEQ ID NO: 22 (Sar-Arg-Val-Tyr-cyPen-His-Pro-Ser)] |
| > 1.3 | < 103 | < 9.2 | [Sar]RVY[Ac6c]HPQ [SEQ ID NO: 38 (Sar-Arg-Val-Tyr-cyHex-His-Pro-Gln)] |
| > 1.3 | < 103 | < 9.2 | [Sar]RVY[Ac5c]HPI [SEQ ID NO: 18 (Sar-Arg-Val-Tyr-cyPen-His-Pro-Ile)] |
| 63.1 | < 103 | < 9.2 | [Sar]RVYPHPV [SEQ ID NO: 6 (Sar-Arg-Val-Tyr-Pro-His-Pro-Val)] |
| 3.2 | < 103 | < 9.2 | [Sar]RVYPHPL [SEQ ID NO: 5 (Sar-Arg-Val-Tyr-Pro-His-Pro-Leu)] |
| > 1.3 | < 103 | < 9.2 | [Sar]RVY[Ac6c]HPY [SEQ ID NO: 55 (Sar-Arg-Val-Tyr-cyHex-His-Pro-Tyr)] |

molecular target: T2, rat angiotensin 2 type 1 receptor; assay: cell-based or functional assay; remark: another data set of the same source

| IP1 G-protein assay EC50 [nM] | IP1 G-protein assay Span | IP1 G-protein assay pEC50 | Binder |
| --- | --- | --- | --- |
| > 0.6 | < 104 | < 9.2 | [Sar]RVY[Ac5c]HPM [SEQ ID NO: 23 (Sar-Arg-Val-Tyr-cyPen-His-Pro-Met)] |
| > 0.6 | < 104 | < 9.2 | [Sar]RVY[Ac5c]HPF [SEQ ID NO: 24 (Sar-Arg-Val-Tyr-cyPen-His-Pro-Phe)] |
| > 0.6 |  | > 9.2 | [Sar]RVYPHPI [SEQ ID NO: 4 (Sar-Arg-Val-Tyr-Pro-His-Pro-Ile)] |
| > 0.6 | < 104 | < 9.2 | [Sar]RVY[Ac5c]HPS [SEQ ID NO: 22 (Sar-Arg-Val-Tyr-cyPen-His-Pro-Ser)] |
| > 0.6 | < 104 | < 9.2 | [Sar]RVY[Ac6c]HPQ [SEQ ID NO: 38 (Sar-Arg-Val-Tyr-cyHex-His-Pro-Gln)] |
| > 0.6 | < 104 | < 9.2 | [Sar]RVY[Ac5c]HPI [SEQ ID NO: 18 (Sar-Arg-Val-Tyr-cyPen-His-Pro-Ile)] |
| > 0.6 | < 104 | < 9.2 | [Sar]RVYPHPV [SEQ ID NO: 6 (Sar-Arg-Val-Tyr-Pro-His-Pro-Val)] |
| > 0.6 | < 104 | < 9.2 | [Sar]RVYPHPL [SEQ ID NO: 5 (Sar-Arg-Val-Tyr-Pro-His-Pro-Leu)] |
| > 0.6 | < 104 | < 9.2 | [Sar]RVY[Ac6c]HPY [SEQ ID NO: 55 (Sar-Arg-Val-Tyr-cyHex-His-Pro-Tyr)] |
